Source: the DeepSol protein solubility set

Assay: soluble on expression in E. coli; label from the status in PepcDB or PDB records

| Sequence | soluble on expression in E. coli |
| --- | --- |
| MGSDKIHHHHHHMYPGCRLCINIGDQFARSVYYGRYKVIPIRTEIIKFCETMGFDYMGAIIWQKVTTTNTTGGATIMGSFPYPRNGILKLDYEFILFFKKQGNAPKPTREQKERSVISKEDWNTYFSGHWYFSGVKQEGHIAMFPEELPARLIKMFAFVGDTVLDPFLGSGTTSMAARNLERNSIGYEINQDFIPAIRQKLNVCQMDIHGAEYSFLEDSATIDCEQEIEKLPYVFKDPHKLDKKIDPKKLLFGSKIDRNSADREEYFSVKEVISPEVIRLSNGLLIRLMGVRENTAMNGLAVNFITEKTKGQKIFLKFDLQKHDSQNRLLCYVYLKNKTFLNAHLIKEGLAIVDRSVDFRYKDKFMKLEAQCG | not soluble |
| MASKEAHVSLARGEQSVKRIKEFDPGKDSFSVLLLGIDAREKNGETVDQARSDANVLVTFNRKEKTAKMLSIPRDAYVNIPGHGYDKFTHAHAYGGVDLTVKTVEEMLDIPVDYVVESNFTAFEDVVNELNGVKVTVKSDKVIQQIKKDTKGKVVLQKGTHTLDGEEALAYVRTRKADSDLLRGQRQMEVLSAIIDKSKSLSSIPAYDDIVDTMGQNLKMNLSLKDAIGLFPFITSLKSVESIQLTGYDYEPAGVYYFKLNQQKLQEVKKELQNDLGVLEHHHHHH | soluble |
| MPVFRRHASQNCASIPPMMLFKRPDTETLYFALVNKDPAYEGVAYVCVTSTKIFCRFTCTARKPKIENCRFRETITECLEAGFRPCKRCKPMLSYGTPDGTVTALLTALENEPARRWREEDVVALGHDPSTVRRSFKRRFGMSFLEIARLRRVGDAAESLASGEAVIGAQIDAGYESGSGFRSAINQLFGTSPAAMKGRGFLKGDWIDTPIGPMLAVADDHALHLLEFADRPALPAELKRLKARTGADMVLGRTAVTGQIAAELAAYFAGRSGSFETRLAGHGTPFERDVWRNLREIPAGEIVSYSSLATAMERPTAVRAVARANGANQLAIVVPCHRVLGADGSLTGYGGGLWRKKWLIEHERRMARGQMLGMPLASLEHHHHHH | not soluble |
| MGSDKIHHHHHHMKIVHVCETLKGGIESYLAEIIPYQVGLYGAENIHIIVPRDGDEGRSEFHEAVVWEFRRQGRSLSTMLNLCLAILKIVRTQAPDVIHLHSSFAGAIGRVVLMALRKETKVIYCPHGWSYLRQGAEHTNWLWKKIETMLALACNRIVCISEHEYNAALDAGLPKQKLELIVSGISDLVPDAPRNQAVSSEKRAIRLLFVGRLDYQKGVDLLFNALRLAARKDIELTVVGEAVVNSGWWAQVRGSCPENVQIIGWQERDALQIFYDLADALVVPSRWEGFGLVAVEALRAGTPVICNVAGALPDIVEHGISGYHLNFENEEKAVAFFSDLKLENLTLLRRAARERYTSVFKSQAMNEKMLQMYQAVMPHAETVGAAGFME | not soluble |
| MSNKLETGIQYMQEGNWEEAAKNFTEAIEENPKDALGYINFANLLDVLGDSERAILFYKRALELDDKSAAAYYGLGNVYYGQEQFTEAKAVFEQAMQAGLQSADVTFMLGITHVQLGNDRLALPFLQRATELDENDVEAVFQCGLCFARLEHVQEAKPYFEKVLEMDEEHADAYYNLGVAYVFEENNEKALALFKKATEIQPDHFLAGNGVRLLEQEAE | not soluble |
| MKIGDISIHYLNGGNTKMDGGAMFGVVPKPLWSKQYNANERNQINLPTHPILIQTAQYNLIIDAGIGNGKLSEKQLRNFGVDEESHIIADLANYNLTPKDIDYVLMTHMHFDHAAGLTDQAGHAIFENAIHVVQQDEWHEFIAPNIRSKSTYWDKNKGDYSNKLILFEKHFEPVPGIKMQHSGGHSFGHTIITIESQGDKAVHMGDIFPTTAHKNPLWVTAYDDYPMQSIREKERMIPYFIQQQYWFLFYHDENYFAVKYSDDGENIDAYILRETLVDNNLEHHHHHH | soluble |
| MIRWMNEPLWPFIERKKSMRNLVKYVGIGLLVMGLAACDDKDTNATAQGSVAESNATGNPVNLLDGKLSFSLPADMTDQSGKLGTQANNMHVWSDATGQKAVIVIMGDDPKEDLAVLAKRLEDQQRSRDPQLQVVTNKAIELKGHKMQQLDSIISAKGQTAYSSVILGNVGNQLLTMQITLPADDQQKAQTTAENIINTLVIQ | not soluble |
| MSNSRSILSQPEWRIVDQSSLGPTFHALQSFAMDDTLCTSIGKGESAATMRSWVHHNTIVLGIQDSRLPHLEEGISFLKENNFNVIVRNSGGLAVVLDEGVLNVSLLFQETEKGIDIDLGYDTMWHLIQEMLKDYDVTIEAKEIVGSYCPGSYDLSIRDQKFAGISQRRIRGGVAVQIYLCATGSGSERAALVRDFYNLAIQGEETRFTYPEIVPSTMASLSELLDETITVQDLMMRLLKTLQQFAPKLTPSQLTIDEIPLYETNLQRIIDRNNKALGLEK | not soluble |
| MLKGKYTKIEKVNGVEREYLITDKYGITIGRIFIVDLNKDNRFCMFRMKIYKQGKSINTYIKEILSVFMEFLFKSNDINKVNIIVDEEVSTQPFVELGFAFEGIINKSIIEKNVLKDEFLFGMDYKNYNSDRINVFKLYGKSITLKVLTPEDAENMLQYYIKNKEHLKPFEPEREESFYTFEAQKQMLIENYKQFINGEGTNFGIYKDAKLIGKIQISGTIYGVFKSAIIGYSIDKDYQGKGYMKDALRVAEAYAFNVMNLHRIEASALVDNLRSQNVLIGCGFEKLGINKNYLFINGRWQDHITFYKTNNN | not soluble |
| MFRIASSSYSQFIASANPSIQTRCISIARIDQKIKRGNSDRRVIHAKKFTKQTDSPASVAGDGFILSKTFLQNAIAHQPPSGLTPVGRDGGRDEKKLILHPKEIVEHLNKYVVGQEEAKKYLAVAVYQHYRRVENNLRVTEQWMLSEAVAAAKERKKMRKQNPEEEEYYPEYVQKSQRQILKDLEKRQDMILDKSNMILLGASGTGKTFMTQKLAEVLDVPIVICDCTTLTQAGYVGDDVDTVIQKLLAEAMGDIEKCQRGIVFLDEFDKIYTSSDPLHTSGNRDVSGKGVQQALLKLVEGSLVKVRDPLAPNSKVTIDTSNILFIASGAFSNIEHIVARRMDKRLVTSLLFHFPQ | not soluble |
| MLVRDVMKSPVLTVGPEATLEEAYKLLLERGIRHLPVVEEGRLVGIVTDRDIRLATSHLNPKGPCPGCTRVGEVMTREVVTAHPLDPVEEAARVMRERKIGCLPVLEDEALVGIVTGIDLLDALLRLTGVTEPSGRLEVRLPDRPGELARLTGFLAGRGVNIHSLLSYPEGREFVRAVVRVNTLETHLLAEALRREGFDVLWPPKKPW | soluble |
| MAEICLITGTPGSGKTLKMVSMMANDEMFKPDENGIRRKVFTNIKGLKIPHTYIETDAKKLPKSTDEQLSAHDMYEWIKKPENIGSIVIVDEAQDVWPARSAGSKIPENVQWLNTHRHQGIDIFVLTQGPKLLDQNLRTLVRKHYHIASNKMGMRTLLEWKICADDPVKMASSAFSSIYTLDKKVYDLYESAEVHT | soluble |
| GMNSDIIVADFWKNNEEILTDFDKDSFCESWTENEMWSIEFKVAQTPKNAHCYSFLDYESSVYFRGQEFVVKQLSHDAVGKTLSKDIRAPHIYYTCQDGRQDDAITGSFTLEQCLTHIFKTDNRGFSWEIIDPSNILEKVQQENFGNNNYLTLIDQLLDDYGVVVIPDNRHLVFKPREIYGAKTENFIRYKYNTDEASFDIDTLSLKTKIKGYGKVDSNGNNYFSPITYTSPEVEKWGIRWQEPVSDERYTVAGNMQRRLKLELQDYPATTGSVILKNDYECEKGDYVLFIYEPLGIDYDVQIVAYKKYPFTIKAPEITLSNNKKSIVSIMAQLAKVLKGAK | soluble |
| MAHHHHHHMYVRSISKELTKRMYNPSGHRIMMMDLKNKTTNNILNSRRYIVSYTKVHRTHYLEDYYTNPEIATNMISPMSEYIWWSWLLLQVN | not soluble |
| MGSDKIHHHHHHMQQNTNVDPQEIAKFERMAETWWDLNGEFKPLHLLNPLRLNYIDQTAGGIFGKKVLDVGCGGGILSESMARIGAIVDGLDMGEEPLEVARLHALETGVSINYVKNTAEAHREDHREYYDVVTCMEMLEHVPDPQSVIQACCDMVKPGGFVFFSTINRNVRSFVETIIGAEYLLKMLPIGTHDHNKFIKPSELIDLVDNTELICKDALGITYNPLTGIFKYTSKVDVNYMIATQKVD | not soluble |
| MRRVLFSCFCGLLWSSSGWAVDPLGTININLHGNVVDFSCTVNTADIDKTVDLGRWPTTQLLNAGDTTALVPFSLRLEGCPPGSVAILFTGTPASDTNLLALDDPAMAQTVAIELRNSDRSRLALGEASPTEEVDANGNVTLNFFANYRALASGVRPGVAKADAIFMINYN | not soluble |
| MRESHNVLPPVAPVRPITRTHHGIDFVDNYEWLRDKENPETIQYLEAENAFVEQQTAHLSQLKDNIYHEIKSRVKETDMSVPQRAGDFWYYGRSVEGKSYGYSCRIPVSEGADAWVPPTIPEREPVAGEQIILDANELAEGHEFFALGASTVTTSGRYLAYSVDTEGDERFTLRVKDLATGEHLADEIPDVFYGATWAGEEYLFYQRVDAAWRPDSVWRHKIGTDPATDVQVFHEADERFNTGVGATRSERFLMIESASKITSEIWVLDLDNPTGDFRCVLPRQAGVEYDIDHAVVAGRDTWIVTHNAAGPNFEVGWTPVTDEEISLDSLEVLVPHRDEVRIEGVDTYRDHIVLAYRSGAIGRAAVMQLNADGFGTFEEITFDEELYTIGVGGHPEWDTPVVRMVYVSFTQPSQVFDYWIADGRRTLLKQQEVVGGYNADDYTASRLWVEAHDGVRIPVSLIHRSDLDLSKPNPTLLYGYGSYESSIDPGFSIARLSLMDRGMVFAIAHVRGGGEMGRGWYDTGKTVTKKNTFTDFIAVADHLIEHGVTTSEMLVAEGGSAGGMLMGAVANMAGDRFKAIEAVVPFVDPLTSMLMPELPLTVTEWDEWGDPLHDVDVYNYMASYAPYENIEAKAYPNILAVTSLNDTRVLYVEPAKWIAQLRATATGGQFLLKTEMSAGHGGVSGRYEKWKQTAFEYAWLCHQATGKES | not soluble |
| MGSDKIHHHHHHMNPGIEKYEIRFDFDLKDFTYTSHERIHLAGDWKDIKLDAVRLSVDKVTCNGQPMRFETGQDTVTVKGSFHDKDVIDIDFHAKVSDTLMGLYLSRTKEGTMITTQFESNGARMAFPCVDHPAYKAVFAITVVIDKDYDAISNMPPKRIEVSERKIVEFQDTPKMSTYLLYIGVGKFKYATDKYRDIDLILVSLKDIKSKYPLEIARKSIEFYESYFGIPYALPKMHLISVPEFGAGAMENWGAITFREVALMATENSGSIMKQNAAITIAHEIAHQWFGDLVTMKWWNDLWLNESFATFMSYKTVDSFSKQWDVFADFIRSETGGALRSDSLKNTHPIEVDVKDPDEISQIFDEISYGKGASILRMIEDYAGYEEFRKGISKYLNDHRYGNAEGSDLWTAIEDVSGKPVKRVMEYWIKNPGYPVVSVVKSGNKFRLTQEQFFLDGTRGQGKWPIPLTVMTKSGKKAMLMEESAEIEDMVKVNVNSSGFYRVSYDGESFETVMKNYSKLSNLDRWGLISDLYAFLISGRVSVDDYLARIKGFFEDSDHLIVEEIASQLTGLYLLKPDSNRIRETAASYLSRQVVALGDKQKGEDDKISKIRGIVTQDLAMVDDHFASDLARKFSTLAEDPDLALAKSIAAAKAYGISELASAADKYTDDEIRVRIIAAMGWCSPSDLKSVFELIDKGTIRKQDMLYVFSNMPANPKGRDFFFSNIDRIVALMEHAFEGTGYTSRILETAIPYLGLARYEDVKKKAEQIRKPSYNVGINKGLETLEIVRKLYNKL | not soluble |
| GDDNSYSLGDIWIAVATVVPEGNNVYYLRLDDGDKLWPAATNYPNYQPKPNQRALVNFTILADSTQSNLGGFSHYIKVNAIHNILTKSIAKNEGAANDSIYGTDPVSIYNNNMWIGDGYLNIYFETLWGGKTAHFINLIQPDAENDPYTLEFRHNAYDDPQYTIGAGRVAFNLSSLPDTKGETVDLVVNYWTSEGKQAYKLKYNSDKTKMEDTSQGYTNDSISNITDMK | soluble |
| MEPKDTTTNDAFKGFTNTACPFLPCHKGVKREFNCLFCYCPLIAYECPGPYQVYTDKNGLTRKDCTNCTLPHDGYLASWNFIQKWLERPVIWSGAAQTTPPTRRPGRAPGDGDEELEHHHHHH | soluble |
